Data on 2 molecules can be found in publication PMC11436757, “BRCA2 stabilises RAD51 and DMC1 nucleoprotein filaments through a conserved interaction mode” (Nature Communications, 2024).

One data set addresses T1, DMC1 ΔN (Homo sapiens, UniProt Q14565).
T1 construct: DMC1 ΔN (83-340) were cloned into pHAT4; His6 (TEV-cleavable) (N, cleaved yes); made in house; host or cells: E. coli BL21 (DE3)
T1 sequence (Q14565 83-340): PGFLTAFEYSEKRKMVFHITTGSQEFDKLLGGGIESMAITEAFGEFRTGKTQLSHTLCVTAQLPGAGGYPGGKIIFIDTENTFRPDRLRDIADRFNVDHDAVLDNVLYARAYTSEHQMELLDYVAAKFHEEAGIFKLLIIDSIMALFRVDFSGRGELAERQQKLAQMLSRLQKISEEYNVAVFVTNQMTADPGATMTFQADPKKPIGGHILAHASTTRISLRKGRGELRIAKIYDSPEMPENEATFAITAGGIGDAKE
Kind of data set: Amylose pull-down of DMC1 ΔN with MBP-BRCA2 fusions. As to conditions: recombinant co-expression with MBP-BRCA2 fusion. It counts as binding. From the text:
(§1) For affinity pulldown experiments, MBP-fusions of BRCA2 fragments (Ex14, amino-acids 2387-2420, Ex14-Tr, amino acids 2401-2414, Ex27, amino acids 3270-3315, BRC4, amino acids 1519-1551) were cloned into pMAT11 vectors[54] and co-expressed with DMC1 ΔN, DMC1 ΔN loop mutant (in which DMC1 amino acids 147-GAGGYPG-153 and 178-NVDHDA-183 were replaced by the cognate sequences of RAD51 148-IDRGGGE-154 and 179-GLSGSD-184), RAD51 ΔN, RAD51 ΔN loop mutant (the reverse switch of DMC1 ΔN loop mutant), and RAD51. MBP-fusions and complexes were purified through amylose affinity chromatography.

In the next data set the target is T2, DMC1 ΔN loop mutant (Homo sapiens, UniProt Q14565, A148D/A183D/D180S/D182S/G147I/G149R/G153E/H181G/N178G/P152G/V179L/Y151G).
T2 construct: DMC1 ΔN (83-340) were cloned into pHAT4; made in house
T2 sequence (Q14565 83-340 G147I/A148D/G149R/Y151G/P152G/G153E/N178G/V179L/D180S/H181G/D182S/A183D limits assumed): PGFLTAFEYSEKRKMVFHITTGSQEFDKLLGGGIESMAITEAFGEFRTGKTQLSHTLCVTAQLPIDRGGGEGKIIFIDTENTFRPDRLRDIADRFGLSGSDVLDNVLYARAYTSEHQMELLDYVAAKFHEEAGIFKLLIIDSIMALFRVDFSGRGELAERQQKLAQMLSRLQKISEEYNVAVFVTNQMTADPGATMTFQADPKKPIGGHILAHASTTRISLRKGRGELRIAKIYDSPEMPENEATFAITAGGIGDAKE
Kind of data set: Amylose pull-down of DMC1 ΔN loop mutant with MBP-BRCA2 fusions. Type of data set: binding. The following applies: recombinant co-expression with MBP-BRCA2 fusion.
Excerpt: as §1

The next data set deals with DMC1 ΔN V179E. The data set can be described thus: Amylose pull-down of His-DMC1 ΔN V179E with MBP-BRCA2 fusions. The following applies: lysates mixed; MBP-BRCA2 fusion; 20 mM Tris pH 8.0, 500 mM KCl, 2 mM DTT. It counts as binding, human. The procedure:
(§2) For affinity experiments involving DMC1 ΔN V179E and F85E, MBP-fusions of BRCA2 fragments (Ex14, amino-acids 2387-2420, Ex14-Tr, amino acids 2401-2414, BRC4, amino acids 1519-1551) were cloned into pMAT11 vectors and DMC1 ΔN mutants (V179E or F85E) were cloned into pHAT4 vectors. Lysates of bacterial cultures expressing His6-DMC1 mutants or MBP-BRCA2 constructs were mixed, and complexes were purified through amylose affinity chromatography in 20 mM Tris pH 8.0, 500 mM KCl, 2 mM DTT and eluted using 30 mM D-maltose.

For the next data set, the system named is DMC1 ΔN F85E. Kind of data set: Amylose pull-down of His-DMC1 ΔN F85E (monomeric) with MBP-BRCA2 fusions. Type of data set: binding, human. The following applies: lysates mixed; MBP-BRCA2 fusion; 20 mM Tris pH 8.0, 500 mM KCl, 2 mM DTT. The protocol:
as §2

The next data set has as its system DMC1-ssDNA filaments. The data set can be described thus: EMSA, BRC4-mediated disruption of DMC1-ssDNA filaments. It counts as biochemical, human. As to conditions: TEA pH 7.5 + KCl; stoichiometric excess of BRC4 (5-fold, 10-fold elsewhere in the source). The procedure: Finally, we tested whether binding of BRCA2 Ex14 protects DMC1-ssDNA nucleoprotein filaments from BRC4-mediated disruption (Fig. 3c). […] Further, whilst the core PhePP interaction site is sufficient to stimulate DMC1-ssDNA nucleoprotein filament formation, surrounding amino-acids that are present within Ex14 (but not Ex14-Tr) are necessary to super-shift filaments and confer protection from BRC4-mediated disruption.
(§3) To form nucleoprotein filaments, DMC1 and RAD51 was incubated with fluorescent 100-base ssDNA (5’-FAM- […]-3’) at the concentrations indicated in the figures for 30 minutes at 4 °C in reaction buffer. For DMC1, reaction buffer is 25 mM TEA (triethanolamine) pH 7.5, 1 mM ATP, 2 mM MgCl2, 0.1 mg/ml BSA, 2 mM DTT, 200 mM KCl. […] Glycerol was added at a final concentration of 3%, and samples were analysed by electrophoresis on a 1% (w/v) (for DMC1) or 0.66% (w/v) (for RAD51) agarose gel in 0.5x TAE pH 8.0 at 20–40 V for ~4 h at 4 °C. DNA was detected by FAM using a Typhoon^TM FLA 9500 (GE Healthcare), with 473 nm laser at excitation wavelength 490 nm and emission wavelength 520 nm, using the LPB filter and a PMT voltage of 500 V. To analyse RAD51 nucleoprotein filaments assembled upon 100-base poly(dT) ssDNA, gels were stained post-run using SYBR^TM Gold Nucleic Acid Gel Stain (Invitrogen) and detected using a Typhoon^TM FLA 9500 (GE Healthcare).

For data set [1], the system named is RAD51-ssDNA filaments. The data set can be described thus: EMSA, BRC4-mediated disruption of RAD51-ssDNA filaments (random sequence ssDNA). It counts as biochemical. As to conditions: 100-nt random ssDNA; equimolar BRC4. The procedure:
as §3, with “KCl. For RAD51, reaction buffer is 50 mM TEA (triethanolamine), 2 mM ATP, 0.5 mM MgCl2, 2 mM DTT. For assays requiring incomplete nucleoprotein filament assembly, the reaction buffer consisted of 50 mM TAE (tris, acetate, EDTA) pH 7.5, 2 mM ATP, 2 mM MgCl2, 2 mM DTT. In nucleoprotein formation stimulation assays or supershift experiments, BRCA2Ex14 or BRCA2Ex14-AAA were added for a further 30 min at 4 °C.” for “KCl.”

For data set [2], the system named is RAD51-ssDNA filaments. Kind of data set: EMSA, protection of RAD51-ssDNA filaments from BRC4-mediated disruption (random sequence ssDNA). It counts as biochemical. As to conditions: 100-nt random ssDNA; 10-fold excess of Ex27. The procedure: as §3, with “KCl. For RAD51, reaction buffer is 50 mM TEA (triethanolamine), 2 mM ATP, 0.5 mM MgCl2, 2 mM DTT. For assays requiring incomplete nucleoprotein filament assembly, the reaction buffer consisted of 50 mM TAE (tris, acetate, EDTA) pH 7.5, 2 mM ATP, 2 mM MgCl2, 2 mM DTT. In nucleoprotein formation stimulation assays or supershift experiments, BRCA2Ex14 or BRCA2Ex14-AAA were added for a further 30 min at 4 °C.” for “KCl.”
A general note: Mobility shift assays separate free from complexed probe on a gel.

Data set [3] has as its system RAD51 L180E-ssDNA filaments. Kind of data set: EMSA, BRC4-mediated disruption of RAD51 L180E-ssDNA filaments (random sequence ssDNA). As to conditions: 100-nt random ssDNA. Type of data set: biochemical. The procedure: as §3, with “KCl. For RAD51, reaction buffer is 50 mM TEA (triethanolamine), 2 mM ATP, 0.5 mM MgCl2, 2 mM DTT. For assays requiring incomplete nucleoprotein filament assembly, the reaction buffer consisted of 50 mM TAE (tris, acetate, EDTA) pH 7.5, 2 mM ATP, 2 mM MgCl2, 2 mM DTT. In nucleoprotein formation stimulation assays or supershift experiments, BRCA2Ex14 or BRCA2Ex14-AAA were added for a further 30 min at 4 °C.” for “KCl.”

For a further data set, the target named is T3, DMC1;BRCA2 Ex14-Tr (Homo sapiens;Homo sapiens, UniProt Q14565;P51587 1-340;, |).
T3 sequence 1: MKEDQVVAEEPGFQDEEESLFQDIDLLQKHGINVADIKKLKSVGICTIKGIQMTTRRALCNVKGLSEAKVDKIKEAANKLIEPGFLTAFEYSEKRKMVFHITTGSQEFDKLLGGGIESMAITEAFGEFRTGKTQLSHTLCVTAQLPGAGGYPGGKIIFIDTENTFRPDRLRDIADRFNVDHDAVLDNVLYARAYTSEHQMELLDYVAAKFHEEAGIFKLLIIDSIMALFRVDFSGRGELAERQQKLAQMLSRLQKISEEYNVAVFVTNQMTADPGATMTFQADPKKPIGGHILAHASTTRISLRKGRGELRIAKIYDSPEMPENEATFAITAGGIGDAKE
T3 sequence 2: RPTKVFVPPFKTKS
The data set can be described thus: EMSA; TAE + Ex14-Tr; mostly stimulated filament formation; DMC1: 25 mM TEA (triethanolamine) pH 7.5, 200 mM KCl, 1 mM ATP, 2 mM MgCl2, 0.1 mg/ml BSA, 2 mM DTT, or 50 mM TAE pH 7.5, 2 mM ATP, 2 mM MgCl2, 2 mM DTT; RAD51: 50 mM TEA, 2 mM ATP, 0.5 mM MgCl2, 2 mM DTT; all 4 C, agarose gel in 0.5x TAE. The following applies: tags: His6 removed by TEV;; label: 5'-FAM; single strand.

A further data set addresses T4, DMC1;BRCA2 Ex14 (Homo sapiens;Homo sapiens, UniProt Q14565;P51587 1-340;2387-2420, |).
T4 sequence 1: T3 sequence 1
T4 sequence 2: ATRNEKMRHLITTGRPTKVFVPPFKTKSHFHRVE
Kind of data set: EMSA, BRC4 protection; TEA + KCl; 110 µM Ex14, 10-fold excess BRC4, protected; DMC1: 25 mM TEA (triethanolamine) pH 7.5, 200 mM KCl, 1 mM ATP, 2 mM MgCl2, 0.1 mg/ml BSA, 2 mM DTT, or 50 mM TAE pH 7.5, 2 mM ATP, 2 mM MgCl2, 2 mM DTT; RAD51: 50 mM TEA, 2 mM ATP, 0.5 mM MgCl2, 2 mM DTT; all 4 C, agarose gel in 0.5x TAE. As to conditions: protein: recombinant;recombinant; tags: His6 removed by TEV;His6-MBP removed by TEV; label: 5'-FAM; single strand.

For the next data set, the target named is RAD51;BRCA2 Ex27 (Homo sapiens?;Homo sapiens?, UniProt Q06609;P51587 1-339;3270-3315, |). Kind of data set: EMSA, BRC4 protection; 10-fold excess Ex27 + BRC4; protected, less complete than on poly(dT); DMC1: 25 mM TEA (triethanolamine) pH 7.5, 200 mM KCl, 1 mM ATP, 2 mM MgCl2, 0.1 mg/ml BSA, 2 mM DTT, or 50 mM TAE pH 7.5, 2 mM ATP, 2 mM MgCl2, 2 mM DTT; RAD51: 50 mM TEA, 2 mM ATP, 0.5 mM MgCl2, 2 mM DTT; all 4 C, agarose gel in 0.5x TAE. As to conditions: tags: ;; label: 5'-FAM; single strand.

The target of another data set is T5, DMC1 (Homo sapiens, UniProt Q14565 1-340).
T5 sequence: T3 sequence 1
Kind of data set: EMSA; TEA + 200 mM KCl, 1 mM ATP, 2 mM Mg2+; largely complete at 3 nt per protomer (11 µM DMC1); DMC1: 25 mM TEA (triethanolamine) pH 7.5, 200 mM KCl, 1 mM ATP, 2 mM MgCl2, 0.1 mg/ml BSA, 2 mM DTT, or 50 mM TAE pH 7.5, 2 mM ATP, 2 mM MgCl2, 2 mM DTT; RAD51: 50 mM TEA, 2 mM ATP, 0.5 mM MgCl2, 2 mM DTT; all 4 C, agarose gel in 0.5x TAE. The following applies: protein: recombinant; tags: His6 removed by TEV; chain copies: 8; label: 5'-FAM; single strand.

As to “BRC4: BRCA2 BRC repeat 4 peptide, amino acids 1519-1551 (PTLLGFHTASGKKVKIAKESLDKVKNLFDEKEQ; not fully specified; left off: His6, end not stated, state not stated | MBP, end not stated, kept) [reference compound]”, the binding in pull-down entry in the data set with DMC1 ΔN is recorded as “bind”; with DMC1 ΔN loop mutant, “retained its interaction”; in the data set on DMC1 ΔN V179E it was “retained binding”; with DMC1 ΔN F85E, “retained binding”. Moreover, in the data set on DMC1-ssDNA filaments, the “disruption of DMC1-ssDNA filaments” value was “completely disrupted”. For the same molecule, the “disruption of RAD51-ssDNA filaments” value in the data set with RAD51-ssDNA filaments [1] is “disrupted”. Moreover, the “protection of RAD51-ssDNA filaments from BRC4-mediated disruption” value in the data set with RAD51-ssDNA filaments [2] is “partially disrupt filaments”. Besides, in [3], the “disruption of RAD51 L180E-ssDNA filaments” value was “underwent similar disruption”.

B1: 100-nt random-sequence ssDNA (ssDNA)
DNA: AATTCTCATTTTACTTACCGGACGCTATTAGCAGTGGGTGAGCAAAAACAGGAAGGCAAAATGCCGCAAAAAAGGGAATAAGGGCGACACGGAAATGTTG
Regarding B1, the binding result in the data set with DMC1;BRCA2 Ex14-Tr, in the data set with DMC1;BRCA2 Ex14, with RAD51;BRCA2 Ex27 and in the data set with DMC1 was “binds” in each case.
